The values that follow come from article PMC4447253 (mBio, 2015).

The data set “native gel or EMSA” concerns the molecule itself. Description: native gel or EMSA. (A gel shift assay detects complexes by their altered migration in electrophoresis.)
The data set “cross-linking” concerns the molecule itself. Description: cross-linking.

B1: SpdB2-His (SpdB2 of plasmid pSVH1) (natural protein, Streptomyces venezuelae (plasmid pSVH1), UniProt Q3LAJ4 1-409, looked up)
chain: MSTYREEKRLDDQLRAEQKLRNEQLRAEQAREDRRLELEATQQRDAARAEEKRKDAEAKRRQEQAEKKARAAEQQAKKAAAAAKRAKLVRWLKANPATLFVGFVMVASIVPALLSQIGALTGATVAAPMAGLLAAMLEGGAWAITFMGKQAEDAGREPRKYRIGTWAVATVAAAVNFWHGLEAYGEHPWVAFVLGASSLFAIYIWDLKTHGSHGKTKEQKQAEKARRAHVSARRKHHPEIVEQAVKLQAALPYGVLDDESAFAAAWRIHTGAEPGLSAQLYATATEAVLQLGAAFELGDNVRDELLETGFKAARLNPFAELAQVPGSQAGLEENAPQGPASALRPDAPEGKSPEELEALLPDAVAAAAELVAEGRQISAHGLAKKLQIRRVDAALLRDRVIEQRRLHVA
Regarding B1, in the data set “native gel or EMSA”, the binding result was “binds”.

B2: TraR-His (GntR-type transcriptional repressor TraR of plasmid pSVH1) (natural protein, Streptomyces venezuelae (plasmid pSVH1), UniProt Q3LAJ7 1-252, looked up)
chain: MTSTQSEKRVTARSIADDLRGKIRSGQLLPGSVLPTTKALAEEHGVSSKTVSAGIDLLKLEGLVVGEQGGRRRVRADRPITWNLTRFERGARRDSAVMDDWSTAISEAGRTPEQHVSVSRETANSDIAGWLQVPVGDDVVKRVRMRTVDGRPFQLSTSYFPKHVAVGTLLEEPGDVAVPGGILSHIGHPQLRVRDEISVRMPSPEESQELALPPGTPVAQHVRVGYGETGPVRVMVTIAPGDRHTLVYELEV
Consider B2, for which, in “cross-linking”, the “stoichiometry N” value worked out at 2.

For orientation: stoichiometry N means the number of molecules, sites or subunits per partner or assembly.
